From patent US20230270825A1, “STAPLED OLEFIN CO-AGONISTS OF THE GLUCAGON AND GLP-1 RECEPTORS” (Merck Sharp & Dohme LLC, priority 2019, published 2023)
Numbered stars: 1 amine (or outer) side, 2 acyl side, 3 side chain; on linkers, the order of the positions; unused ones are H or OH. Bridge positions count the residues as written; N and C are the ends. Square brackets hold non-standard residues; d marks the D form. Side chains are listed from the residue outwards. Ends that are not written are not given here. Peptide text beside a SMILES is read from it. * marks the point of attachment. R6me = (R)-2-amino-2-methyloct-7-enoic acid, C=CCCCC[C@@](C)(N[*:1])C(=O)[*:2]; Nle(6-ylidene) = O=C([C@H](CCCC=[*:3])N[*:1])[*:2]; S7 = C[C@@](CCCCCC=[*:3])(N[*:1])C(=O)[*:2]; Gly(pent-4-enyl) = C=CCCC[C@H](N)C(=O)O; γGlu = O=C(O)[C@H](CCC(=O)[*:2])N[*:1]; Palmitoyl = CCCCCCCCCCCCCCCC(=O)*; S5 = C=CCCC[C@](C)(N)C(=O)O; Aib = CC(C)(N)C(=O)O

B1: peptide of SEQ ID NO: 19 (TP 558) (peptide)
peptide: HXQGTFTSDKSKYLDERAAXDFVXWLLDT
modifications: as printed: HsQGTFTSDKSKYLDERAA*S5meDFV*S5meWLLDT-NH2; s = D-Serine (position 2); two *S5me (positions 20 and 24) cyclized to form a double bond containing ring; C-terminal amide
B2: peptide of SEQ ID NO: 18 (TP 557) (peptide)
peptide: H[Aib]QGTFTSDKSKYLD[Aib]RAAQDFV[Gly(pent-4-enyl)]WLL[Gly(pent-4-enyl)]TK-NH2
modifications: staple 24-28; not fully specified (residue 30); printed as HUQGTFTSDKSKYLDURAAQDFV*S5HWLL*S5HTKγE-NH2; also: Lys 30 conjugated by a gamma-glutamic acid (KγE)
B3: peptide of SEQ ID NO: 9 (TP398) (peptide)
peptide: H[dS]QGTFTSDKSKYLDE[R6me]AAQDFV[S7]WLLDT-NH2
modifications: staple 17-24
B4: peptide of SEQ ID NO: 16 (TP551) (peptide)
peptide: H[Aib]QGTFTSDK([γGlu-γGlu-Palmitoyl])SKYLD[Aib]RAAQDFV[Gly(pent-4-enyl)]WLL[Gly(pent-4-enyl)]TK-NH2
modifications: staple 24-28; not fully specified (residue 30); printed as HUQGTFTSDK(γEγEC16)SKYLDURAAQDFV*S5HWLL*S5HTKγE-NH2; also: Lys 30 conjugated by a gamma-glutamic acid (KγE)

Assays:
human GCGR = target: T1, human GCGR (Homo sapiens, UniProt P47871); assay: cAMP activity assay, cells expressing human GCGR (HitHunter cAMP XS); assay type: cell-based; details: ratio of human GCGR EC50 to human GLP1R EC50
T1 construct: expressed in transfected cells; assay-ready frozen cells grown with Blasticidin and Hygromycin
T1 sequence (P47871 26-477): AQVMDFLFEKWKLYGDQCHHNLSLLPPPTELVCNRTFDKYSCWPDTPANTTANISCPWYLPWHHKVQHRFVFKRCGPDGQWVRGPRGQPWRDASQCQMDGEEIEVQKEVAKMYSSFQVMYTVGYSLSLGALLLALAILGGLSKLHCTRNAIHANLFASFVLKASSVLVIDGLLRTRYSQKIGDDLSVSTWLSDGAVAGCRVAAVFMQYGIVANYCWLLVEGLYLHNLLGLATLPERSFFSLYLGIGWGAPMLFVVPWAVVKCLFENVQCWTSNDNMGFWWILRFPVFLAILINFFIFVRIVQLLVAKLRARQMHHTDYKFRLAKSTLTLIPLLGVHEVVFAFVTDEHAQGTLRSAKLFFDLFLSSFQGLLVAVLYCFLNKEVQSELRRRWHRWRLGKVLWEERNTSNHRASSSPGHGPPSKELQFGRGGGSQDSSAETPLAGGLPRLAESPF
Experimental: (§1) Activity of the peptides at the Glucagon receptor (GCGR) and GLP-1 receptor (GLP1R) was measured in a cAMP activity assay.
(§2) Peptides were dissolved in 100% DMSO and serially diluted to generate 10 point titrations. The peptide solutions were then transferred into 384-well assay plates (150 nL/well).
(§3) Assay ready frozen cells expressing human GLP1R or human GCGR were suspended in growth media consisting of DMEM medium (GIBCO), 10% FBS (GIBCO), 1x NEAA(GIBCO), 1x P/S (GIBCO), 10ug/ml Blasticidin (GIBCO) and 200 µg/mL Hygromycin (GIBCO). Cells were then diluted in assay buffer consisting of PBS (GIBCO), 7.5% BSA (Perkin Elmer), 100 µM RO 20-1724 (Sigma), with or without 20% human serum (MP Biomedical). The cell suspensions (15 µL) were then added to the assay plates containing the peptide solutions (30,000 cells/well for human GCGR; 10.000 cells/well for human GLP1R). The cells were incubated for 1 hour at room temperature in the dark. Production of cAMP was determined using HitHunter™ cAMPXS kits (DiscoverX) following manufacturer protocol. The plates were incubated for overnight at room temperature in the dark. Luminescence was measured using an EnVision Multilabel plate reader (Perkin Elmer). Native GLP-1 and Glucagon (Bachem) are used as control peptides. EC50 values were calculated using uses a 4 parameter logistic fit based on the Levenberg-Marquardt algorithm.

human GLP1R = target: T2, human GLP1R (Homo sapiens, UniProt P43220); assay: cAMP activity assay, cells expressing human GLP1R (HitHunter cAMP XS); assay type: cell-based; details: cAMP production, 1 hour at room temperature; assay buffer with or without 20% human serum (not stated which)
T2 construct: expressed in transfected cells; assay-ready frozen cells grown with Blasticidin and Hygromycin
T2 sequence (P43220 24-463): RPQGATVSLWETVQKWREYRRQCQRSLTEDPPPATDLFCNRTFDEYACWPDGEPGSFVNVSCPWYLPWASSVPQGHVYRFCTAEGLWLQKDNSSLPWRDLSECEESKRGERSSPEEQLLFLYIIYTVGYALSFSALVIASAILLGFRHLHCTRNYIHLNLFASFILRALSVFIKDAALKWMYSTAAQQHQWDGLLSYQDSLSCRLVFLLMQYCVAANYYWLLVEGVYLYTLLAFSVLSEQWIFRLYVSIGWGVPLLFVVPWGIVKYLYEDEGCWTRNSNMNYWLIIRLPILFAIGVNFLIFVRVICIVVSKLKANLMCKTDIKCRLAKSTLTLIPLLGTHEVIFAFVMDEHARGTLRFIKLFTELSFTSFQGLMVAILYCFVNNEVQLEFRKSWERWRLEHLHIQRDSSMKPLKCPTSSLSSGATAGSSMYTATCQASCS
Experimental: as §1, §2, §3

[1] = target: human GLP-1 receptor (GLP1R) (human, UniProt P43220); assay: cell-based or functional assay
[2] = target: human Glucagon receptor (GCGR) (human, UniProt P47871); assay: cell-based or functional assay

| Molecule | hGCGR/hGLP1R (hTone) (human GCGR) | EC50 (human GLP1R) [nM] | GLP1R EC50 human (cAMP activity assay) [1] [nM] | GCGR EC50 human (cAMP activity assay) [2] [nM] |
| --- | --- | --- | --- | --- |
| CCCCCCCCCCCCCCCC(=O)N[C@@H](CCC(=O)N[C@@H](CCC(=O)NCCCC[C@H](NC(=O)[C@H](CC(=O)O)NC(=O)[C@H](CO)NC(=O)[C@@H](NC(=O)[C@H](Cc1ccccc1)NC(=O)[C@@H](NC(=O)CNC(=O)[C@H](CCC(N)=O)NC(=O)C(C)(C)NC(=O)[C@@H](N)Cc1c[nH]cn1)[C@@H](C)O)[C@@H](C)O)C(=O)N[C@@H](CO)C(=O)N[C@@H](CCCCN)C(=O)N[C@@H](Cc1ccc(O)cc1)C(=O)N[C@@H](CC(C)C)C(=O)N[C@@H](CC(=O)O)C(=O)NC(C)(C)C(=O)N[C@@H](CCCNC(=N)N)C(=O)N[C@@H](C)C(=O)N[C@@H](C)C(=O)N[C@@H](CCC(N)=O)C(=O)N[C@@H](CC(=O)O)C(=O)N[C@@H](Cc1ccccc1)C(=O)N[C@H](C(=O)N[C@@]1(C)CCCC=CCCC[C@@](C)(C(=O)N[C@H](C(=O)N[C@@H](CCCCN)C(=O)N[C@@H](CCC(N)=O)C(=O)O)[C@@H](C)O)NC(=O)[C@H](CCSC)NC(=O)[C@H](CC(C)C)NC(=O)[C@H](Cc2c[nH]c3ccccc23)NC1=O)C(C)C)C(=O)O)C(=O)O [compound 14] (H-H[Aib]QGTFTSDK([γGlu-γGlu-Palmitoyl])SKYLD[Aib]RAAQDFV[S5]WLM[S5]TKQ-OH; staple 24-28) | 35.14 | 0.13 | – | – |
| CC(C)C[C@H](NC(=O)[C@H](Cc1ccc(O)cc1)NC(=O)[C@H](CCCCN)NC(=O)[C@H](CO)NC(=O)[C@H](CCCCN)NC(=O)[C@H](CC(=O)O)NC(=O)[C@H](CO)NC(=O)[C@@H](NC(=O)[C@H](Cc1ccccc1)NC(=O)[C@@H](NC(=O)CNC(=O)[C@H](CCC(N)=O)NC(=O)[C@@H](CO)NC(=O)[C@@H](N)Cc1c[nH]cn1)[C@@H](C)O)[C@@H](C)O)C(=O)N[C@@H](CC(=O)O)C(=O)N[C@@H](CCC(=O)O)C(=O)N[C@@H](CCCNC(=N)N)C(=O)N[C@@H](C)C(=O)N[C@@H](C)C(=O)N[C@H]1CCCC=CCCC[C@@H](C(=O)N[C@@H](Cc2c[nH]c3ccccc23)C(=O)N[C@@H](CC(C)C)C(=O)N[C@@H](CC(C)C)C(=O)N[C@@H](CC(=O)O)C(=O)N[C@H](C(N)=O)[C@@H](C)O)NC(=O)[C@H](C(C)C)NC(=O)[C@H](Cc2ccccc2)NC(=O)[C@H](CC(=O)O)NC1=O [compound 17] (H-H[dS]QGTFTSDKSKYLDERAA[Nle(6-ylidene)]DFV[Nle(6-ylidene)]WLLDT-NH2; staple 20-24) | 1.42 | – | – | – |
| CC(C)C[C@@H]1NC(=O)[C@H](Cc2c[nH]c3ccccc23)NC(=O)[C@@H](NC(=O)[C@@H](NC(=O)[C@H](Cc2ccccc2)NC(=O)[C@H](CC(=O)O)NC(=O)[C@H](CCC(N)=O)NC(=O)[C@H](C)NC(=O)[C@H](C)NC(=O)[C@H](CCCNC(=N)N)NC(=O)C(C)(C)NC(=O)[C@H](CC(=O)O)NC(=O)[C@H](CC(C)C)NC(=O)[C@H](Cc2ccc(O)cc2)NC(=O)[C@H](CCCCN)NC(=O)[C@H](CO)NC(=O)[C@H](CCCCN)NC(=O)[C@H](CC(=O)O)NC(=O)[C@H](CO)NC(=O)[C@@H](NC(=O)[C@H](Cc2ccccc2)NC(=O)[C@@H](NC(=O)CNC(=O)[C@H](CCC(N)=O)NC(=O)C(C)(C)NC(=O)[C@@H](N)Cc2c[nH]cn2)[C@@H](C)O)[C@@H](C)O)C(C)C)CCCC=CCCC[C@@H](C(=O)N[C@H](C(=O)N[C@@H](CCCCN)C(=O)N[C@@H](CCC(N)=O)C(=O)O)[C@@H](C)O)NC(=O)[C@H](CC(C)C)NC1=O [compound 18] (H-H[Aib]QGTFTSDKSKYLD[Aib]RAAQDFV[Nle(6-ylidene)]WLL[Nle(6-ylidene)]TKQ-OH; staple 24-28) | 33.1 | 0.13 | – | – |
| CC(C)C[C@H](NC(=O)[C@H](Cc1ccc(O)cc1)NC(=O)[C@H](CCCCN)NC(=O)[C@H](CO)NC(=O)[C@H](CCCCN)NC(=O)[C@H](CC(=O)O)NC(=O)[C@H](CO)NC(=O)[C@@H](NC(=O)[C@H](Cc1ccccc1)NC(=O)[C@@H](NC(=O)CNC(=O)[C@H](CCC(N)=O)NC(=O)[C@@H](CO)NC(=O)[C@@H](N)Cc1c[nH]cn1)[C@@H](C)O)[C@@H](C)O)C(=O)N[C@@H](CC(=O)O)C(=O)N[C@@H](CCC(=O)O)C(=O)N[C@@H](CCCNC(=N)N)C(=O)N[C@@H](C)C(=O)N[C@@H](C)C(=O)N[C@@]1(C)CCCC=CCCC[C@@](C)(C(=O)N[C@@H](Cc2c[nH]c3ccccc23)C(=O)N[C@@H](CC(C)C)C(=O)N[C@@H](CC(C)C)C(=O)N[C@@H](CC(=O)O)C(=O)N[C@H](C(N)=O)[C@@H](C)O)NC(=O)[C@H](C(C)C)NC(=O)[C@H](Cc2ccccc2)NC(=O)[C@H](CC(=O)O)NC1=O [compound 19] (H-H[dS]QGTFTSDKSKYLDERAA[S5]DFV[S5]WLLDT-NH2; staple 20-24) | 0.77 | – | – | – |
| B1 | – | – | 2.79 | 2.15 |
| B2 | – | – | 0.13 | 4.25 |
| B3 | – | – | 5 | 5 |
| B4 | – | – | 0.18 | 0.48 |
